Tested on: MS2 coat protein
Experiment: apparent KD of MS2 coat protein; designed switch direction (-1 OFF switch, 1 ON switch): -1; higher = weaker reporter binding
Outline: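 Each step of the titration lasted 0.8–1.5 h at the lowest concentration and 10–20 min at the highest. The protein, SNAP-549-labelled MS2 coat protein, went from 0.7 or 1.5 nM doubling to 3 µM over RNA switches transcribed on Illumina chips by stalled E. coli RNA polymerase. Normalised cluster fluorescence was curve-fitted, and the per-design median over clusters is given as apparent KD.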

[1] = Eterna round: R95, input ligand: FMN 200 uM
[2] = Eterna round: R95, input ligand: microRNA oligo, concentration not stated
[3] = Eterna round: R95, input ligand: none
[4] = input ligand: microRNA oligo, concentration not stated

Sequence: AAAUGUUCGGAGGAUAUAGAACGAUUGUCCGAGCUAGAAGGCCGAACAUGAGGAUCACCCAUGUGUACCUUAAA [Tibiares] (puzzle: Exclusion 6)
- apparent KD of MS2 coat protein [1]: 306 nM
- apparent KD of MS2 coat protein [2]: 40.1 nM
- apparent KD of MS2 coat protein [3]: 53.7 nM

Sequence: AAAUGUUGUAAGGAUAUUGAAUAAGAAAACUUACGAGAAGGUGCGACAUGAGGAUCACCCAUGUUCCCAAAGGG [Alacar 2] (Eterna round: R97, puzzle: Exclusion 6)
- apparent KD of MS2 coat protein (input ligand: FMN 200 uM): 31.5 nM
- apparent KD of MS2 coat protein (input ligand: none): 30.4 nM

Sequence: AAAUUCAGAGGAUAUGCGCAUAGAUAAGACUUUGUUUCUUAACAUGAGGAUCACCCAUGUAGAAGGCUGUACAA [Ex2 #68] (Eterna round: R97, puzzle: Exclusion 2)
- apparent KD of MS2 coat protein (input ligand: FMN 200 uM): 16.1 nM
- apparent KD of MS2 coat protein (input ligand: none): 13.4 nM

Sequence: AAAUUGCUAGAGGAUAUCGGAUAGGAUUUAUUACGAGAAGGUUAGACAUGAGGAUCACCCAUGUUCUGUUGGGA [EX6 #24] (Eterna round: R97, puzzle: Exclusion 6)
- apparent KD of MS2 coat protein (input ligand: FMN 200 uM): 89.5 nM
- apparent KD of MS2 coat protein (input ligand: none): 36.9 nM

Sequence: AAAUUGUGAGGAUAUCCAAUAUAUGACAUGAGGAUCACCCAUGUUUCCACUCGUACCUCCGGAGAAGGCACUGCAA [Ex5 #39] (Eterna round: R97, puzzle: Exclusion 5)
- apparent KD of MS2 coat protein (input ligand: FMN 200 uM): 22.3 nM
- apparent KD of MS2 coat protein (input ligand: none): 27.2 nM

Sequence: AACACGGGAGGAUAUGCGACAGGAAACAUGAGGAUCACCCAUGUGGAUGGUCGUACAAACGUAGAAGGCCCGCCCA [Eternabot (Original) Solution 1] (Eterna round: R97, puzzle: Exclusion 5)
- apparent KD of MS2 coat protein (input ligand: FMN 200 uM): 12.9 nM
- apparent KD of MS2 coat protein (input ligand: none): 15.3 nM

Sequence: AACAGUCUAGAGGAUAUGUGGGAUUAAUAUCUUGCAGAAGGCUGGACAUGAGGAUCACCCAUGUAAAUACUACC [Omei Ex6 A15] (Eterna round: R97, puzzle: Exclusion 6)
- apparent KD of MS2 coat protein (input ligand: FMN 200 uM): 80.8 nM
- apparent KD of MS2 coat protein (input ligand: none): 32.9 nM

Sequence: AACCCGAUAGGAUAUACUUGAGGAUCACCCAAGUACGCCUGCAAUGCAAGCGCCUGAAGUAGAAGGAUCAAAAG [Gexetele] (Eterna round: R97, puzzle: Exclusion 3)
- apparent KD of MS2 coat protein (input ligand: FMN 200 uM): 21 nM
- apparent KD of MS2 coat protein (input ligand: none): 31.1 nM

Sequence: AACCUACAUGAGGAUCACCCAUGUGAGGAUAUAUUGUUAUUUAUAAUAUUUUUUAGUGGUAGAAGGCGCGUGAU [JR_Exc1_Sub019] (Eterna round: R97, puzzle: Exclusion 1)
- apparent KD of MS2 coat protein (input ligand: FMN 200 uM): 21 nM
- apparent KD of MS2 coat protein (input ligand: none): 18.5 nM

Sequence: AACCUGAGGCUUUGCUUUAGGUUUACAUGAGGAUCACCCAUGUAGGAUAUGGUAGGCUUUGCUUACCAGAAGGACAUGAUAAUU [Mat - Exclusion NG 3 - Mod of JL - D27] (Eterna round: R96, puzzle: Exclusion NG 3)
- apparent KD of MS2 coat protein (input ligand: FMN 200 uM): 215 nM
- apparent KD of MS2 coat protein [4]: 33 nM
- apparent KD of MS2 coat protein (input ligand: none): 43.8 nM

Sequence: AACGAGGCAGGAUAUACAUGAGGAUCACCCAUGUGCUUGCAUGGCGUGGGAAGUCAUCGUAGAAGGGCUAUGCC [EX3 #64] (Eterna round: R97, puzzle: Exclusion 3)
- apparent KD of MS2 coat protein (input ligand: FMN 200 uM): 210 nM
- apparent KD of MS2 coat protein (input ligand: none): 283 nM

Sequence: AACGUGUAAGGAUAUCUGCUUAUGCUCGGCAAUGCACCGAUAGAGAAGGUACAUGAGGAUCACCCAUGUUCCAA [EX4 A.16] (Eterna round: R97, puzzle: Exclusion 4)
- apparent KD of MS2 coat protein (input ligand: FMN 200 uM): 16.7 nM
- apparent KD of MS2 coat protein (input ligand: none): 15.8 nM

Sequence: AACGUGUAAGGAUAUGCUGCUCGUCACGAAAGUGAUGAGUAGCAGAAGGUACAUGAGGAUCACCCAUGUAAAGA [Exclusion 4.1f (Exclusion4-cac2 - changed GC at 6/50 to AU )] (Eterna round: R96, puzzle: Exclusion 4)
- apparent KD of MS2 coat protein (input ligand: FMN 200 uM): 91.6 nM
- apparent KD of MS2 coat protein [4]: 19 nM
- apparent KD of MS2 coat protein (input ligand: none): 22.2 nM

Sequence: AACUCGUUAGGAUAUACCGCCAACGAUACCUCGUGAAACAUACAUGAGGAUCACCCAUGUAGAAGGAGCGAGCA [Vearbe] (puzzle: Exclusion 2)
- apparent KD of MS2 coat protein [2]: 15.7 nM

Sequence: AACUGACAUGAGGAUCACCCAUGUCAGGAUAUGCUUCAUAAAAACAAACAAAAAUGAUGCAGAAGGGACAUGGA [Design 30 :P Sub-opt 6] (Eterna round: R96, puzzle: Exclusion 1)
- apparent KD of MS2 coat protein [4]: 14.3 nM

Sequence: AAGAAACAUGAGGAUCACCCAUGUCAGGAUAUCUCGAAAAGCAUAGAAAUAUGCGAAGAGAGAAGGGACUAUCC [ChP Ext 10-04-2015 #3] (puzzle: Exclusion 1)
- apparent KD of MS2 coat protein [1]: 22.7 nM
- apparent KD of MS2 coat protein [2]: 23.7 nM
- apparent KD of MS2 coat protein [3]: 31.6 nM

Sequence: AAGAAACAUGAGGAUCACCCAUGUGAGGAUAUGAAAAAGAAAAGAAAAGAAAGAAGACUCAGAAGGCACAAAGG [salish99-ex1_r3_022] (puzzle: Exclusion 1)
- apparent KD of MS2 coat protein [1]: 33.3 nM
- apparent KD of MS2 coat protein [2]: 48.5 nM
- apparent KD of MS2 coat protein [3]: 45.7 nM

Sequence: AAGAAACAUGAGGAUCACCCAUGUGAGGAUAUGAAAAAGAAAAGAAAAGAAAGAAGCAUCAGAAGGCACAAAGG [salish99-ex1_r3_026] (puzzle: Exclusion 1)
- apparent KD of MS2 coat protein [1]: 36.1 nM
- apparent KD of MS2 coat protein [2]: 32.1 nM
- apparent KD of MS2 coat protein [3]: 31.1 nM

Sequence: AAGAAACAUGAGGAUCACCCAUGUGAGGAUAUGAAAAAGAAAAGAAAAGAAAGAAGCUUCAGAAGGCACAAAGG [salish99-ex1_r3_030] (puzzle: Exclusion 1)
- apparent KD of MS2 coat protein [1]: 38 nM
- apparent KD of MS2 coat protein [2]: 27.5 nM
- apparent KD of MS2 coat protein [3]: 39.4 nM

Sequence: AAGAAACAUGAGGAUCACCCAUGUGAGGAUAUGUAAAAUAAAAGAAAAUAAAGAAUAAACAGAAGGCACAAAGG [Mat - Mod of Hog D23] (puzzle: Exclusion 1)
- apparent KD of MS2 coat protein [1]: 48 nM
- apparent KD of MS2 coat protein [2]: 46.5 nM
- apparent KD of MS2 coat protein [3]: 43.5 nM

Sequence: AAGAAAGGUGACAUGGGUGACAUGAGGAUCACCCAUGUUACAAGCUUGUUGCUCGUCUUAUAAUUAACCCAUGUCAU [LRO Sensor-off var1-19 mod of Stov1-13-A1 by Brourd] (Eterna round: R97, puzzle: Sensor, turn-off variant 1)
- apparent KD of MS2 coat protein (input ligand: FMN 200 uM): 55.3 nM
- apparent KD of MS2 coat protein (input ligand: none): 64.6 nM

Sequence: AAGAACGGUAAGGAUAUCCAUGUGAAAUAAAGAGGAGAAGGUACCACAUGAGGAUCACCCAUGUGGCUCUCAAA [EX6 B.30] (Eterna round: R97, puzzle: Exclusion 6)
- apparent KD of MS2 coat protein (input ligand: FMN 200 uM): 13.8 nM
- apparent KD of MS2 coat protein (input ligand: none): 11.5 nM

Sequence: AAGAACGUACAAGGAUAUCUCCACCACAACGGCAGAGAAGGUGUACAUGAGGAUCACCCAUGUGACCGAAGGCCCUUAUGGGCC [Xeerergeza] (Eterna round: R96, puzzle: Exclusion NG 1)
- apparent KD of MS2 coat protein (input ligand: FMN 200 uM): 79.8 nM
- apparent KD of MS2 coat protein [4]: 20.6 nM
- apparent KD of MS2 coat protein (input ligand: none): 29.6 nM

Sequence: AAGACACAUGAGGAUCACCCAUGUGAGGAUAUUCGAUGCUAAGCGUAAGCUUAGUAUCGGAGAAGGCACAAAGG [Salishxclusion 6 - Jieux - Exclusion 1] (Eterna round: R97, puzzle: Exclusion 1)
- apparent KD of MS2 coat protein (input ligand: FMN 200 uM): 128 nM
- apparent KD of MS2 coat protein (input ligand: none): 48.2 nM

Sequence: AAGACGCGUGUAAGGAUAUCGAAAGCCCGAGGCGACGAGAAGGUACAUGAGGAUCACCCAUGUGCAGAUCACAA [BmEX4 B.3] (Eterna round: R97, puzzle: Brourd's mod of Exclusion 4)
- apparent KD of MS2 coat protein (input ligand: FMN 200 uM): 18.9 nM
- apparent KD of MS2 coat protein (input ligand: none): 17.3 nM

Sequence: AAGAGUAGAGGAUAUACGAAAAAAGAGUCGAAAGACUCGGGACAUGAGGAUCACCCAUGUAGAAGGCUACUCAA [Hyphema Seclusion Mod 62% 5] (Eterna round: R96, puzzle: Exclusion 2)
- apparent KD of MS2 coat protein [4]: 19.4 nM

Sequence: AAGAUACAUGAGGAUCACCCAUGUUAGGAUAUACGCAUGCAUGCAUGCAUGCAUGCAAGUAGAAGGAACCAUGC [Design #3] (Eterna round: R97, puzzle: Exclusion 1)
- apparent KD of MS2 coat protein (input ligand: FMN 200 uM): 29.2 nM
- apparent KD of MS2 coat protein (input ligand: none): 28.4 nM

Sequence: AAGAUGCGGAUAGGAUAUGGAAAAAAAAAAAAAUUAGAAGGGUUGGUUAAAAUACAUGAGGAUCACCCAUGUGAAUCAUGAGAA [AK ExNG1-2.1] (Eterna round: R96, puzzle: Exclusion NG 1)
- apparent KD of MS2 coat protein (input ligand: FMN 200 uM): 159 nM
- apparent KD of MS2 coat protein [4]: 127 nM
- apparent KD of MS2 coat protein (input ligand: none): 159 nM

Sequence: AAGAUGCGGAUAGGAUAUGGAAAGAAGGAAAGACCAGAAGGAUUGGUCAUAUAACAUGAGGAUCACCCAUGUAUAUGUUGUGAA [AK ExNG1-3.1] (Eterna round: R96, puzzle: Exclusion NG 1)
- apparent KD of MS2 coat protein [4]: 13 nM

Sequence: AAGAUGCGGAUAGGAUAUGGAAAUUAAUAAAGACCAGAAGGAUUGGUCACACAACAUGAGGAUCACCCAUGUGUGUGUUGUGAA [AK ExNG1-5] (Eterna round: R96, puzzle: Exclusion NG 1)
- apparent KD of MS2 coat protein [4]: 10.6 nM

Sequence: AAGAUGUGAGGAUAUGUAUCGCAUAUAGAGCGAACACUAGGAUAGAAGGCACAUGAGGAUCACCCAUGUGAUCG [Eternabot (L2) Solution 73] (Eterna round: R97, puzzle: Exclusion 4)
- apparent KD of MS2 coat protein (input ligand: FMN 200 uM): 39.9 nM
- apparent KD of MS2 coat protein (input ligand: none): 45.3 nM

Sequence: AAGCAGUCAGGAUAUCGUUAAUUUAGUUGUUUGUAUUAGUUCGAGAAGGGACAUGAGGAUCACCCAUGUAAGAA [Ex4 #43] (Eterna round: R97, puzzle: Exclusion 4)
- apparent KD of MS2 coat protein (input ligand: FMN 200 uM): 40.5 nM
- apparent KD of MS2 coat protein (input ligand: none): 41 nM

Sequence: AAGCCCUGAGGAUAUCCUUACUCGCACAUGAGGAUCACCCAUGUCCUCCUCCGGGCUUCGGGAGAAGGCAGGUCUC [Megrez-7.7] (Eterna round: R97, puzzle: Exclusion 5)
- apparent KD of MS2 coat protein (input ligand: FMN 200 uM): 40.1 nM
- apparent KD of MS2 coat protein (input ligand: none): 56.6 nM

Sequence: AAGCCUGGCUCAGGAUAUACAUGAGGAUCACCCAUGUUCUCAGUGAGGCAAGAUAACAACACGACGUAGAAGGGAGCUAGGCCG [Eternabot solution 5] (Eterna round: R96, puzzle: Exclusion NG 2)
- apparent KD of MS2 coat protein (input ligand: FMN 200 uM): 81.7 nM
- apparent KD of MS2 coat protein [4]: 17.9 nM
- apparent KD of MS2 coat protein (input ligand: none): 40 nM

Sequence: AAGCUUUUUGGUGACCUCGACAUGAGGAUCACCCAUGUCGUAUUAGAACUUCGGACGAUGAUCGUGCUCGUCAUAAG [Eternabot (Original) Solution 43] (Eterna round: R97, puzzle: Sensor, turn-off variant 1)
- apparent KD of MS2 coat protein (input ligand: FMN 200 uM): 598 nM
- apparent KD of MS2 coat protein (input ligand: none): 677 nM

— the supplement of paper PMC9170038
